According to patent US20170275666A1, “Methods for Preparing Rebaudioside I and Uses” (The Coca-Cola Company, priority 2014, published 2017):
Numbering of substitutions follows the chain as printed. Values joined by “and” are separate entries in the source; they are usually repeats but may differ in a detail not shown here. Identical values can stand only once.

How the values were obtained:
[1] = Sensory characteristics of rebaudioside I compared to rebaudioside M (taste panel); assay type: in vivo; conditions: 400 ppm in water, approximately 4° C., seven panelists
Experimental: Rebaudioside I was evaluated to determine its sensory profile, including in comparison to rebaudioside M.
Samples were prepared at a concentration of 400 ppm in a water matrix. Analysis to determine the actual concentration of the samples was preformed.
Seven panelists participated in testing of rebaudioside I and rebaudioside M. Samples were served at approximately 4° C. Panelists were instructed to take 1 sip of the sample (10 mL), hold in mouth for 5 seconds, expectorate and rate the taste attributes, as described below. A 5 minute break was placed between each sample and panelist were instructed to cleanse their palates with at least 1 bite of an unsalted cracker and 2 sips of filtered water. Samples were randomized and each sample was present in replicate in the session.
Attributes evaluated included: sweet taste intensity (maximum level of sweeteness in mouth during 5 seconds); bitter taste intensity (maximum level of bitterness in mouth during 5 seconds); overall maximum sweet intensity (maximum sweet intensity experienced from time sip is taken up to 1 minute); overall maximum bitter intensity (maximum bitter intensity experienced from time sip is taken up to 1 minute); other intensity (intensity of any taste, aromatic or mouth feel other than sweet and bitter (e.g., metallic, plastic, licorice, etc.); sweet linger intensity (sweet intensity 1 minute after expectoring the sample); and bitter aftertaste intensity (bitter intensity one minute after expectoring the sample).
Fishers LSD was used to compare significant differences between the mean scores.

[2] = Taste properties of beverage formulations (flavored black tea, enhanced water, lemon-lime flavored sparkling beverage); assay type: in vivo
Experimental: Reb I levels are evaluated in an zero calorie Lemon-lime-flavored sparking beverage base to determine the effect of increasing sweetness. Samples of the Lemon-lime-flavored sparkling beverage with Reb I in amounts between 400 and 750 ppm (in 50 ppm increments) and 3.5% allulose are prepared. […] Samples having 550 ppm and 600 ppm Reb I are found to be the closest in sweetness level to an 10.0 Brix HFCS sweetened Lemon-lime flavored sparkling beverage formulation.

[3] = Activity of in-vivo preparations of UGT91D2, transformation of Rubusoside to Stevioside; assay type: biochemical; conditions: per mL of lysate, 30° C., pH 7.2
Experimental: Activity tests were performed at 5 mL scale with 1000 μL of lysate for the transformation of Rubusoside to Stevioside using 0.5 mM of substrate, 2.5 mM of UDP-Glucose and 3 mM MgCl2 in 50 mM Sodium Phosphate buffer at pH 7.2. Samples were taken and analyzed by HPLC.

[4] = Directed evolution of UGT76G1, conversion of Rebaudioside D to Rebaudioside M (round 1); assay type: biochemical; conditions: 0.5 mM Rebaudioside D, 2.5 mM UDP-Glucose, 100 μL fresh lysate, 30° C., pH 7.2
In short: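 Conversion to Reb M and initial rate were measured by HPLC with CAD at 2, 4, 7 and 24 h, with reactions run at 30° C in 50 mM phosphate pH 7.2 containing 0.5 mM Reb D, 2.5 mM UDP-glucose and 3 mM MgCl2. Enzyme source: fresh lysates of E. coli BL21(DE3) expressing 3-5-mutation UGT76G1 variants.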

C=C1C[C@@]23CC[C@H]4[C@@](C)(CCC[C@@]4(C)C(=O)O[C@@H]4O[C@H](CO)[C@@H](O)[C@H](O[C@@H]5O[C@H](CO)[C@@H](O)[C@H](O)[C@H]5O)[C@H]4O[C@@H]4O[C@H](CO)[C@@H](O)[C@H](O)[C@H]4O)[C@@H]2CC[C@]1(O[C@@H]1O[C@H](CO)[C@@H](O)[C@H](O[C@@H]2O[C@H](CO)[C@@H](O)[C@H](O)[C@H]2O)[C@H]1O[C@@H]1O[C@H](CO)[C@@H](O)[C@H](O)[C@H]1O)C3 [Reb M, Rebaudioside M, reference compound]
Bitter Aftertaste Intensity [1]: 0.8
Bitter Taste Intensity [1]: 1.0
Other Intensity [1]: 0.9
Overall Max Bitterness Intensity [1]: 1.6
Overall Max Sweetness Intensity [1]: 8.0
Sweet Linger Intensity [1]: 4.9
Sweet Taste Intensity [1]: 7.4

C=C1C[C@@]23CC[C@H]4[C@@](C)(CCC[C@@]4(C)C(=O)OC4OC(CO)C(O)C(OC5OC(CO)C(O)C(O)C5O)C4O)[C@@H]2CCC1(OC1OC(CO)C(O)C(OC2OC(CO)C(O)C(O)C2O)C1OC1OC(CO)C(O)C(O)C1O)C3 (stereo partly shown) [Reb I]
Bitter Aftertaste Intensity [1]: 1.3
Bitter Taste Intensity [1]: 1.4
Other Intensity [1]: 1.3
Overall Max Bitterness Intensity [1]: 2.1
Overall Max Sweetness Intensity [1]: 7.2
Sweet Linger Intensity [1]: 3.5
Sweet Taste Intensity [1]: 5.9
Overall Max Sweetness Intensity ([1]; listed as Rebaudioside I): lower
Sweet Linger Intensity ([1]; listed as Rebaudioside I): lower
Sweet Taste Intensity ([1]; listed as Rebaudioside I): lower
taste properties compared to Reb A drink ([2]; flavored zero calorie black tea drink, 275 ppm): much cleaner in finish with less sweetness linger and a more rounded overall sweetness profile
Reb I concentration closest in sweetness level to 10.0 Brix HFCS sweetened Lemon-lime flavored sparkling beverage ([2]; zero calorie Lemon-lime-flavored sparkling beverage with 3.5% allulose): 550 ppm and 600 ppm
taste compared to Reb A-containing formulations ([2]; zero calorie Lemon-lime-flavored sparkling beverage, 400 to 750 ppm Reb I and 3.5% allulose): significantly better than comparable Reb A-containing formulations
taste properties compared to Reb A drink ([2]; zero calorie enhanced water drink, 200 ppm): cleaner in finish and has a reduced sweetness linger and a more rounded overall sweetness taste quality

B1: UGT91D2: UDP-glucosyltransferase (Genbank ACE87855.1) produced in E. coli, tested as lysate (protein, UniProt B3VI56 1-473, looked up)
UDP-glycosyltransferase 91D2: MATSDSIVDDRKQLHVATFPWLAFGHILPYLQLSKLIAEKGHKVSFLSTTRNIQRLSSHISPLINVVQLTLPRVQELPEDAEATTDVHPEDIPYLKKASDGLQPEVTRFLEQHSPDWIIYDYTHYWLPSIAASLGISRAHFSVTTPWAIAYMGPSADAMINGSDGRTTVEDLTTPPKWFPFPTKVCWRKHDLARLVPYKAPGISDGYRMGLVLKGSDCLLSKCYHEFGTQWLPLLETLHQVPVVPVGLLPPEVPGDEKDETWVSIKKWLDGKQKGSVVYVALGSEVLVSQTEVVELALGLELSGLPFVWAYRKPKGPAKSDSVELPDGFVERTRDRGLVWTSWAPQLRILSHESVCGFLTHCGSGSIVEGLMFGHPLIMLPIFGDQPLNARLLEDKQVGIEIPRNEEDGCLTKESVARSLRSVVVEKEGEIYKANARELSKIYNDTKVEKEYVSQFVDYLEKNTRAVAIDHES
modifications: E. coli lysate
notes: UDP-glucosyltransferase (Genbank ACE87855.1) produced in E. coli, tested as lysate
Transformation activity Rubusoside to Stevioside ([3]; plasmid pET30a+, expression strain ArcticExpress (DE3)): 21 mU mL^−1
Transformation activity Rubusoside to Stevioside ([3]; plasmid pET30a+, expression strain Tuner (DE3)): 28 mU mL^−1
Transformation activity Rubusoside to Stevioside ([3]; plasmid pMAL, expression strain ArcticExpress): 60 mU mL^−1
Transformation activity Rubusoside to Stevioside ([3]; plasmid pMAL, expression strain BL21): 9 mU mL^−1

B2: UGT76G1var86: UGT76G1 variant, mutations E224A_T284L_V396F_Y397E_I407V (protein, UniProt Q6VAB4 1-458, looked up, variant E224A T284L V396F Y397E I407V)
UDP-glycosyltransferase 76G1: MENKTETTVRRRRRIILFPVPFQGHINPILQLANVLYSKGFSITIFHTNFNKPKTSNYPHFTFRFILDNDPQDERISNLPTHGPLAGMRIPIINEHGADELRRELELLMLASEEDEEVSCLITDALWYFAQSVADSLNLRRLVLMTSSLFNFHAHVSLPQFDELGYLDPDDKTRLEEQASGFPMLKVKDIKSAYSNWQILKEILGKMIKQTKASSGVIWNSFKALEESELETVIREIPAPSFLIPLPKHLTASSSSLLDHDRTVFQWLDQQPPSSVLYVSFGSLSEVDEKDFLEIARGLVDSKQSFLWVVRPGFVKGSTWVEPLPDGFLGERGRIVKWVPQQEVLAHGAIGAFWTHSGWNSTLESVCEGVPMIFSDFGLDQPLNARYMSDVLKVGFELENGWERGEVANAIRRVMVDEEGEYIRQNARVLKQKADVSLMKGGSSYESLESLVSYISSL
Conversion Reb D to Reb M after 24 h (%) [4]: 1.6%
initial rate (Reb M area/min) [4]: 3.8E+05 Reb M area/min

B3: UGT76G1var87: UGT76G1 variant, mutations S241I_L243A_V300A_F314S_N409R (protein, UniProt Q6VAB4 1-458, looked up, variant S241I L243A V300A F314S N409R)
UDP-glycosyltransferase 76G1: B2 UDP-glycosyltransferase 76G1 with A224E, S241I, L243A, L284T, V300A, F314S, F396V, E397Y, V407I, N409R
Conversion Reb D to Reb M after 24 h (%) [4]: 35.7%
initial rate (Reb M area/min) [4]: 2.1E+07 Reb M area/min

B4: UGT76G1var6: UGT76G1 variant, mutations Q266S_S357N_I373L (protein, UniProt Q6VAB4 1-458, looked up, variant Q266S S357N I373L)
UDP-glycosyltransferase 76G1: B2 UDP-glycosyltransferase 76G1 with A224E, Q266S, L284T, S357N, I373L, F396V, E397Y, V407I
Conversion Reb D to Reb M after 24 h (%) [4]: 0.5%
initial rate (Reb M area/min) [4]: 1.8E+06 Reb M area/min

B5: UGT76G1var88: UGT76G1 variant, mutations A239V_T284I_V310I_Q342K_L379A (protein, UniProt Q6VAB4 1-458, looked up, variant A239V T284I V310I Q342K L379A)
UDP-glycosyltransferase 76G1: B2 UDP-glycosyltransferase 76G1 with A224E, A239V, L284I, V310I, Q342K, L379A, F396V, E397Y, V407I
Conversion Reb D to Reb M after 24 h (%) [4]: 1.6%
initial rate (Reb M area/min) [4]: 3.8E+05 Reb M area/min

B6: UGT76G1var89: UGT76G1 variant, mutations F41L_E229A_E231A_F265L_P272A (protein, UniProt Q6VAB4 1-458, looked up, variant F41L E229A E231A F265L P272A)
UDP-glycosyltransferase 76G1: B2 UDP-glycosyltransferase 76G1 with F41L, A224E, E229A, E231A, F265L, P272A, L284T, F396V, E397Y, V407I
Conversion Reb D to Reb M after 24 h (%) [4]: 1.2%
initial rate (Reb M area/min) [4]: 2.1E+05 Reb M area/min

B7: UGT76G1var90: UGT76G1 variant, mutations E231A_S241I_S274G_Y397Q_Q425E (protein, UniProt Q6VAB4 1-458, looked up, variant E231A S241I S274G Y397Q Q425E)
UDP-glycosyltransferase 76G1: B2 UDP-glycosyltransferase 76G1 with A224E, E231A, S241I, S274G, L284T, F396V, E397Q, V407I, Q425E
Conversion Reb D to Reb M after 24 h (%) [4]: 34.5%
initial rate (Reb M area/min) [4]: 1.9E+07 Reb M area/min

B8: UGT76G1var91: UGT76G1 variant, mutations E224A_L246F_T263S_F265I_Q342K (protein, UniProt Q6VAB4 1-458, looked up, variant E224A L246F T263S F265I Q342K)
UDP-glycosyltransferase 76G1: B2 UDP-glycosyltransferase 76G1 with L246F, T263S, F265I, L284T, Q342K, F396V, E397Y, V407I
Conversion Reb D to Reb M after 24 h (%) [4]: 1.2%
initial rate (Reb M area/min) [4]: 2.3E+05 Reb M area/min

B9: UGT76G1var92: UGT76G1 variant, mutations K303G_S357N_V366I_V394I_I407V (protein, UniProt Q6VAB4 1-458, looked up, variant K303G S357N V366I V394I I407V)
UDP-glycosyltransferase 76G1: B2 UDP-glycosyltransferase 76G1 with A224E, L284T, K303G, S357N, V366I, V394I, F396V, E397Y
Conversion Reb D to Reb M after 24 h (%) [4]: 1.6%
initial rate (Reb M area/min) [4]: 3.6E+05 Reb M area/min

B10: UGT76G1var93: UGT76G1 variant, mutations I43V_Q266E_S375M_S389E_V394I (protein, UniProt Q6VAB4 1-458, looked up, variant I43V Q266E S375M S389E V394I)
UDP-glycosyltransferase 76G1: B2 UDP-glycosyltransferase 76G1 with I43V, A224E, Q266E, L284T, S375M, S389E, V394I, F396V, E397Y, V407I
Conversion Reb D to Reb M after 24 h (%) [4]: 1.8%
initial rate (Reb M area/min) [4]: 4.5E+05 Reb M area/min

B11: UGT76G1var95: UGT76G1 variant, mutations A33G_I295M_K303G_I335V_A385T (protein, UniProt Q6VAB4 1-458, looked up, variant A33G I295M K303G I335V A385T)
UDP-glycosyltransferase 76G1: B2 UDP-glycosyltransferase 76G1 with A33G, A224E, L284T, I295M, K303G, I335V, A385T, F396V, E397Y, V407I
Conversion Reb D to Reb M after 24 h (%) [4]: −1.3%
initial rate (Reb M area/min) [4]: −1.7E+05 Reb M area/min

B12: UGT76G1var96: UGT76G1 variant, mutations F22L_E229A_L243P_F377C_A385T (protein, UniProt Q6VAB4 1-458, looked up, variant F22L E229A L243P F377C A385T)
UDP-glycosyltransferase 76G1: B2 UDP-glycosyltransferase 76G1 with F22L, A224E, E229A, L243P, L284T, F377C, A385T, F396V, E397Y, V407I
Conversion Reb D to Reb M after 24 h (%) [4]: 1.2%
initial rate (Reb M area/min) [4]: 2.7E+05 Reb M area/min

B13: UGT76G1var7: UGT76G1 variant, mutations F22L_I43V_A239V (protein, UniProt Q6VAB4 1-458, looked up, variant F22L I43V A239V)
UDP-glycosyltransferase 76G1: B2 UDP-glycosyltransferase 76G1 with F22L, I43V, A224E, A239V, L284T, F396V, E397Y, V407I
Conversion Reb D to Reb M after 24 h (%) [4]: 0.2%
initial rate (Reb M area/min) [4]: −6.0E+04 Reb M area/min
